One test deals with eRGMB-P206N (human) (UniProt Q6NW40). Description: AUC.
The target in test [1] is ectodomain of RGMB (eRGMB), wild type (human) (UniProt Q6NW40). Description: AUC.
Test [2] shares this target. Description: AUC. This is another data set of the same source.
For test [3] the target is unchanged. In words: multiangle light scattering.
Test [4] has as its target RGMA, full-length ectodomain (human) (UniProt Q96B86). In words: SPR. For orientation: In SPR one partner is held on a chip, and binding of the other changes the refractive index at the surface.
UniProt Q96B86, sequence (Q96B86 48-424): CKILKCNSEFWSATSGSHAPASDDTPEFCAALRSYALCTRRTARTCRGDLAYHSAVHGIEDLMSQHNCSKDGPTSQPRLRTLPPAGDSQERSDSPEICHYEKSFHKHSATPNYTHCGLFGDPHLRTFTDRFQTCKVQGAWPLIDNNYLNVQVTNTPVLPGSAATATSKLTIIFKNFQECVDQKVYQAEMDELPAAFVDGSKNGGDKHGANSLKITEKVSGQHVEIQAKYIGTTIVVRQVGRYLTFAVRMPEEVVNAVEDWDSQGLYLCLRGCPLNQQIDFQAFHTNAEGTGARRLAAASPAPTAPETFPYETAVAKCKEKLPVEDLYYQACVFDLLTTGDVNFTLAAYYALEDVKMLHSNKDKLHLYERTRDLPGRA
Test [5] has as its target RGMC, full-length ectodomain (human) (UniProt Q6ZVN8). Description: SPR.
UniProt Q6ZVN8, sequence (Q6ZVN8 36-400): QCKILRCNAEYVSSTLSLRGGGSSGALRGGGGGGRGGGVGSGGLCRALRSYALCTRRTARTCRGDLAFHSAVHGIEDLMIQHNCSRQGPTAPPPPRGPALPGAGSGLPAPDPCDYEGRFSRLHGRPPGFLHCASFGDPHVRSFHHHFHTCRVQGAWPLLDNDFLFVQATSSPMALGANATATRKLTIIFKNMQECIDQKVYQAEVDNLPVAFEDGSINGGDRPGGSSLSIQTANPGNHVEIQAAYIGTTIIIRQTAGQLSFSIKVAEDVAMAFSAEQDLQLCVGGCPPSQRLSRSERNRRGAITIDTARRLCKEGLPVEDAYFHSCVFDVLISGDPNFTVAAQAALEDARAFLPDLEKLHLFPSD
The target of test [6] is ectodomain of RGMB (eRGMB), wild type (human) (UniProt Q6NW40). Description: SPR.

In general, stoichiometry N refers to a count of units in the complex or per binding partner.

As for “NEO1_FN56M (from UniProt P97798 883-1136) (domain or fragment)”, the stoichiometry N (with eRGMB-P206N (human); in test [1]; in test [2]; in test [3]) was 1 in each case.
On to “full-length DCC ectodomain (from UniProt P43146 26-1097) (domain or fragment)”, for which the interaction relative to the equivalent NEO1 construct in test [4], in test [5] and in test [6] was 0.001 fold each time.

The values are drawn from publication PMC4730555.
